Results on six molecules are retold here after publication PMC2904831 (Journal of molecular biology, 2010).

Like-named read-outs stand apart in the source and are kept apart here. Where no end group is shown, it is not given here. [ ]: non-standard residue; d: D form. pS = N[C@@H](COP(=O)(O)O)C(=O)O A value given as a limit tells only on which side of the number the result lay.

Assay [1] relates to pMART-1-specific CD4+ T cell clone D7-F6. The assay is described as follows: Recognition of peptide-pulsed HLA-DR1+ EBV-B cells by CD4+ T cell clone D7-F6. It is filed as cell-based, human. The settings on record: ELISA. In general terms: An ELISA detects its analyte on a solid surface through an enzyme-linked reagent.
The subject of assay [2] is pMART-1-specific CD4+ T cell line D7. The assay is described as follows: Recognition of titrated peptides on HLA-DR1+ APC by CD4+ T cell line D7. It is filed as cell-based, human. The settings on record: T cell line D7, peptide 25 μM, ELISA; Fig. 4b.
The target of assay [3] is HLA-DR1 (HLA-DRβ1*0101) purified from the EBV-transformed homozygous B lymphoblastoid cell line LG2 (human). The assay is described as follows: radioligand binding.
Assay [4] shares this target. The assay is described as follows: radioligand binding. This is another data set of the same source.

As to PKYVKQNTLKLAT [HA307-319], the “GM-CSF secretion from T cells + APC + peptide” value in assay [1] (clone D7-F6, HLA-DR1+ 2048-EBV cells pre-pulsed with peptide 25 μM, overnight, Fig. 3) was less than 15 pg/mL; in assay [1] (clone D7-F6, peptide 15 μM, Fig. 4a), less than 20 pg/mL; in assay [2] it was 0.7 ng/mL.

In the case of “pMART-1_(100–116) phosphopeptide (from UniProt Q16655 100-116)”, the IC50 in assay [3] came out at 327 nM. As to “pMART-1_(98–109) phosphopeptide (from UniProt Q16655 98-109)”, the fold decrease in other in assay [3] is less than 2 fold.

B1: pMART-1_(100–115) phosphopeptide (peptide)
peptide: APPAYEKL[pS]AEQSPPP
B1 gave an IC50 in assay [4] of 142 nM.

B2: pMART-1_(100–114) phosphopeptide (peptide)
peptide: APPAYEKL[pS]AEQSPP
B2 had a concentration for half-maximal inhibition (IC50) in assay [4] of 102 nM.

B3: pMART-1_(100–111) phosphopeptide (peptide)
peptide: APPAYEKL[pS]AEQ
In turn, B3 yielded a 50% inhibitory concentration (IC50) in assay [4] of 459 nM.

For orientation: IC50 means the concentration that gives 50% inhibition. Read a high IC50 as weaker potency.
